{"source": "paper PMC6605747", "parents": {"B1": {"name": "Flag-tagged mouse CXCR4 C-terminally fused via a TEV protease cleavage site to tTA [mouse] / Myc-tagged COMMD8 C-terminally fused to TEV protease [not stated (mouse cDNA cloned for the MSCV2.2 vectors)] (parent)", "chain 1": "MEPEEGTPLWRLQKLPPEQGAGLLHKIIDGFCGRAYPAHQDYHSVWNSAEWKHVLEDVTTFFKAVVGKNFSEEETLQQLNQLNSCHQEAVLKCLKSRRNEIKQALLGEIVDISCAQLQDFDWQLKLALSSDKIATLQMPLLNLHLDVKEDDKVKPYTVEMSKEELQSLISSLEAANKVVLQLK", "chain 2": "MEPISVSIYTSDNYSEEVGSGDYDSNKEPCFRDENVHFNRIFLPTIYFIIFLTGIVGNGLVILVMGYQKKLRSMTDKYRLHLSVADLLFVITLPFWAVDAMADWYFGKFLCKAVHIIYTVNLYSSVLILAFISLDRYLAIVHATNSQRPRKLLAEKAVYVGVWIPALLLTIPDFIFADVSQGDISQGDDRYICDRLYPDSLWMVVFQFQHIMVGLILPGIVILSCYCIIISKLSHSKGHQKRKALKTTVILILAFFACWLPYYVGISIDSFILLGVIKQGCDFESIVHKWISITEALAFFHCCLNPILYAFLGAKFKSSAQHALNSMSRGSSLKILSKGKRGGHSSVSTESESSSFHSS"}}}
{"variants_of": "B1", "test": "Tango assay", "details": "with Myc-tagged COMMD8 C-terminally fused to TEV protease [not stated (mouse cDNA cloned for the MSCV2.2 vectors)]; HTL cells; firefly luciferase normalized to Renilla luciferase, fold increase over unstimulated cells; read off a plot"}
{"variant": "chain 2 S353A S354A S355A", "response (fold increase)": 0.87}
